In assay [1] the target is rTRP120-tandem repeat domain truncate construct (rTRP120-TRD) (Ehrlichia chaffeensis) (UniProt Q2GI62). Description: SPR; His-tagged rTRP120-FL or rTRP120-TRD (0.1 µM) captured on Ni-NTA sensor chip; rFzd-ECD 0 to 1,600 nM flowed over; Biacore T100; 100 mM NaPO4 pH 7.4, 400 mM NaCl, 40 µM EDTA, 0.005% Tween 20; 1:1 fit.
Assay [2] has as its target T1, recombinant, full-length TRP120 (rTRP120-FL) (Ehrlichia chaffeensis, UniProt Q2GI62 1-548).
T1 construct: Ehrlichia chaffeensis tandem repeat protein TRP120, full-length gene cloned upstream of a 6xHis tag; Thioredoxin fusion from the vector pBAD/Thio-TOPO; also called rTRP12-FL; source: E. coli TOP10, pBAD/Thio-TOPO, purified (His-tag purification resin); not shown: His6, C-terminal, kept
T1 sequence: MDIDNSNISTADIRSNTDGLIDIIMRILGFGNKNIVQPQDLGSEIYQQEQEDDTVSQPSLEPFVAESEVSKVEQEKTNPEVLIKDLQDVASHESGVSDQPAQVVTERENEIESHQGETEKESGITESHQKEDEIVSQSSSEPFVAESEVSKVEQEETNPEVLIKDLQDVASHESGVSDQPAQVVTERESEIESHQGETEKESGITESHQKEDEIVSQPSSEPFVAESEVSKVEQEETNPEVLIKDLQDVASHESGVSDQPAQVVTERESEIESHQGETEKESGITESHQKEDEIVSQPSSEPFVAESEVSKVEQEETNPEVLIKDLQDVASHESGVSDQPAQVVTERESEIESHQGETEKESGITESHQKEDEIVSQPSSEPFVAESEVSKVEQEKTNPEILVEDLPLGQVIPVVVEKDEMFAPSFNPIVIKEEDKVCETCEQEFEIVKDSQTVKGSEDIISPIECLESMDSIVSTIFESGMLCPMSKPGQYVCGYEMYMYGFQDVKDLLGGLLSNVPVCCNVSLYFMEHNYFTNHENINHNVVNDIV
The assay is described as above. Particulars: both partners purified.

“recombinant Fzd5 extracellular domain (rFzd5-ECD) (from UniProt Q13467 27-238) (domain or fragment)” showed a Kd in assay [1] of 1.35 µM.

B1: recombinant Fzd5 extracellular domain (rFzd5-ECD) (domain or fragment, UniProt Q13467 27-238, looked up)
chain: ASKAPVCQEITVPMCRGIGYNLTHMPNQFNHDTQDEAGLEVHQFWPLVEIQCSPDLRFFLCSMYTPICLPDYHKPLPPCRSVCERAKAGCSPLMRQYGFAWPERMSCDRLPVLGRDAEVLCMDYNRSEATTAPPRPFPAKPTLPGPPGAPASGGECPAGGPFVCKCREPFVPILKESHPLYNKVRTGQVPNCAVPCYQPSFSADERTFATFW
notes: Frizzled-5, recombinant extracellular domain (methods: 'cysteine-rich domain-truncated protein'); commercial Frizzled ECD proteins are often Fc chimeras and may be mouse (surmise); also called Fzd5-CRD; source: bought: R&D Systems
For the molecule B1, in assay [2], the Kd came to 46.3 µM.

Broadly, the Kd is the free concentration of one partner at which half of the binding sites on the other are occupied at equilibrium, for simple one-to-one binding.

Source of the values: PMC8546699, “Ehrlichia chaffeensis TRP120 Is a Wnt Ligand Mimetic That Interacts with Wnt Receptors and Contains a Novel Repetitive Short Linear Motif That Activates Wnt Signaling” (mSphere, 2021).
